The labels stand for the following.
B1: Mitochondrial intermembrane space import and assembly protein 40 (Saccharomyces cerevisiae), P36046 (parent)
chain: MLRNLVVRNACRNRPSIQVARGLCRHQTRRLMASSPQFGRNSNQEKTAGFIMGILSMAGALYFIAPNRKPLFASRKVESDKTAEEELSSGGEQSPENEDDNNSKSDENGDDNDSKNDETEAGPQLGGDKIGASKVAEDGELVVLAEEDNKSSEDKDTDESKVSTKDDEQSNEDNATANNQKDENISSENSEENTSDKTLDNNAGSSEKKDPEHSDDEKSQQGQSDDKTTTEDNNGEEESSKKTVSDSENSAKQSESSDEEKEELRKQEEKQMGPTEEEVQHEGAYNPDTGEINWDCPCLGGMAHGPCGEEFKSAFSCFVYSEAEPKGIDCVEKFQHMQDCFRKYPEHYAEQLKETSDDEEPQDKVKVNTIESAPNVSSAKENAAKKAEQSDVKKEPLNEESKP
partner: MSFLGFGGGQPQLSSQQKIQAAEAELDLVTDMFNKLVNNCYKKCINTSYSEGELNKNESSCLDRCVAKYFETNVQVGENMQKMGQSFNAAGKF
B2: Mitochondrial intermembrane space import and assembly protein 40 (Saccharomyces cerevisiae), P36046 (parent)
chain: B1 chain
partner: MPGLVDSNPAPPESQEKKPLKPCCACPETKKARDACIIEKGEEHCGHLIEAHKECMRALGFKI

Variants of B1 are the subject of the first experiment. As to conditions: with tim10_yeast TIM10, P87108.
On to MLRNLVVRNACRNRPSIQVARGLCRHQTRRLMASSPQFGRNSNQEKTAGFIMGILSMAGALYFIAPNRKPLFASRKVESDKTAEEELSSGGEQSPENEDDNNSKSDENGDDNDSKNDETEAGPQLGGDKIGASKVAEDGELVVLAEEDNKSSEDKDTDESKVSTKDDEQSNEDNATANNQKDENISSENSEENTSDKTLDNNAGSSEKKDPEHSDDEKSQQGQSDDKTTTEDNNGEEESSKKTVSDSENSAKQSESSDEEKEELRKQEEKQMGPTEEEVQHEGAYNPDTGEINWDCPSLGGMAHGPCGEEFKSAFSCFVYSEAEPKGIDCVEKFQHMQDCFRKYPEHYAEQLKETSDDEEPQDKVKVNTIESAPNVSSAKENAAKKAEQSDVKKEPLNEESKP [C298S], for which the “effect of a mutation on the interaction” value is “decreasing interaction”.

Regarding MLRNLVVRNACRNRPSIQVARGLCRHQTRRLMASSPQFGRNSNQEKTAGFIMGILSMAGALYFIAPNRKPLFASRKVESDKTAEEELSSGGEQSPENEDDNNSKSDENGDDNDSKNDETEAGPQLGGDKIGASKVAEDGELVVLAEEDNKSSEDKDTDESKVSTKDDEQSNEDNATANNQKDENISSENSEENTSDKTLDNNAGSSEKKDPEHSDDEKSQQGQSDDKTTTEDNNGEEESSKKTVSDSENSAKQSESSDEEKEELRKQEEKQMGPTEEEVQHEGAYNPDTGEINWDSPSLGGMAHGPCGEEFKSAFSCFVYSEAEPKGIDCVEKFQHMQDCFRKYPEHYAEQLKETSDDEEPQDKVKVNTIESAPNVSSAKENAAKKAEQSDVKKEPLNEESKP [C296S;C298S], the “effect of a mutation on the interaction” value is “disrupting interaction”.

The variants in another experiment derive from B2. Conditions: with cox17_human COX17, Q14061.
As for MLRNLVVRNACRNRPSIQVARGLCRHQTRRLMASSPQFGRNSNQEKTAGFIMGILSMAGALYFIAPNRKPLFASRKVESDKTAEEELSSGGEQSPENEDDNNSKSDENGDDNDSKNDETEAGPQLGGDKIGASKVAEDGELVVLAEEDNKSSEDKDTDESKVSTKDDEQSNEDNATANNQKDENISSENSEENTSDKTLDNNAGSSEKKDPEHSDDEKSQQGQSDDKTTTEDNNGEEESSKKTVSDSENSAKQSESSDEEKEELRKQEEKQMGPTEEEVQHEGAYNPDTGEINWDCPSLGGMAHGPCGEEFKSAFSCFVYSEAEPKGIDCVEKFQHMQDCFRKYPEHYAEQLKETSDDEEPQDKVKVNTIESAPNVSSAKENAAKKAEQSDVKKEPLNEESKP [C298S], the “effect of a mutation on the interaction” value is “decreasing interaction”.

Turning to MLRNLVVRNACRNRPSIQVARGLCRHQTRRLMASSPQFGRNSNQEKTAGFIMGILSMAGALYFIAPNRKPLFASRKVESDKTAEEELSSGGEQSPENEDDNNSKSDENGDDNDSKNDETEAGPQLGGDKIGASKVAEDGELVVLAEEDNKSSEDKDTDESKVSTKDDEQSNEDNATANNQKDENISSENSEENTSDKTLDNNAGSSEKKDPEHSDDEKSQQGQSDDKTTTEDNNGEEESSKKTVSDSENSAKQSESSDEEKEELRKQEEKQMGPTEEEVQHEGAYNPDTGEINWDSPSLGGMAHGPCGEEFKSAFSCFVYSEAEPKGIDCVEKFQHMQDCFRKYPEHYAEQLKETSDDEEPQDKVKVNTIESAPNVSSAKENAAKKAEQSDVKKEPLNEESKP [C296S;C298S], the “effect of a mutation on the interaction” value is “disrupting interaction”.

Values taken from IntAct's records for PubMed 19182799.
